What was measured:
TRF2 = assay: EMSA
TRF1 = assay: EMSA

**Q.** For Cy3 telomeric PCR product (255 bp), which K half (TRF2) is on record?
**A.** 111 nM

**Q.** What about the K half (TRF1) of the same substance?
**A.** 152 nM

— publication PMC4151696
